Experimental data as given in patent publication US20100028924A1, “Method Of Diagnosing Pon1-Hdl Associated Lipid Disorders” (Rappaport Family Institute Research in the Medical Sciences, priority 2006, published 2010).

Key:
apoA-I rHDL = assay: Inactivation kinetics of human PON1 192 isozymes on rHDL-apoA-I (NTA/β-mercaptoethanol); assay type: biochemical; settings: 50-fold molar excess rHDL-apoA-I; NTA and β-mercaptoethanol each 5 mM, 25° C.
Description: FIGS. 5A-B are graphs showing the inactivation and catalytic stimulation of the human PON1 192R/Q isozymes. FIG. 5A is a line graph showing the inactivation kinetics of human PON1-192R and -192Q in the presence of rHDL-apoA-I. The delipidated isozymes (0.2 μM) were incubated with a 50-fold molar excess of rHDL-apoA-I in activity buffer, and subjected to inactivation by NTA and β-mercaptoethanol (each at 5 mM) at 25° C. Residual activity determined as above (FIG. 1) and data were fitted to a double-exponential function. FIG. 5B is a bar graph showing stimulation of the enzymatic activity of human PON1-192R and -192Q by rHDL-apoA-I. The delipidated isozymes were incubated with a 50-fold molar excess of rHDL-apoA-I, and enzymatic activity was determined with various substrates (at 1 mM for all the substrates, except TBBL at 0.25 mM). The activity is presented in relation to the initial activity of the delipidated enzymes (percentage of stimulation). Each bar represents the mean and S.D. of at least two independent measurements;
Human PON1-192R and Q isozymes purified from pooled blood samples [Gan, K. N., et al., Drug Metab Dispos, 1991. 19(1): p. 100-6] were kindly provided by Dr. Dragomir Draganov (University of Michigan, Ann Arbour), and stored in presence of 0.1% tergitol and 20% glycerol. Prior to assay, these samples were briefly delipidated [Gaidukov, L. and D. S. Tawfik, Biochemistry, 2005. 44(35): p. 11843-54] and dialyzed against activity buffer to remove the tergitol and glycerol that interfere with HDL binding. Dialyzed samples (0.2 μM) were incubated with rHDL (10 μM). Stability assays were performed at 25° C., in activity buffer supplemented with nitrilotriacetic acid (NTA) and β-mercaptoethanol, both at 5 mM. Data analysis was performed as described above for rePON1s. Stimulation of enzymatic activities was measured with various substrates at 1 mM concentration, except for TBBL (0.25 mM).
The progress of inactivation of human PON1 isozymes anchored on rHDL-apoA-I is illustrated in FIG. 5A. Inactivation of both isozymes followed a two-phase kinetics with similar inactivation rates, but different partitioning between the HDL-bound and unbound phases, as detailed in Table 4 hereinbelow. Amplitudes (A) and kinetic rates of inactivation (k^inactiv) were derived by fitting the data to a double-exponential curve.

[1] = Dihydrocoumarin hydrolysis by PON1 isozymes (Vmax); assay type: biochemical; settings: Vmax^Q=1.125*Vmax^R
Description: Determination of a total PON1 level may be effected by any method known in the art. For example, the level of total PON1 may be determined using an antibody specific for PON1. Preferably, the level of total PON1 is determined by measuring the level of total enzymatically active PON1. Thus for example, the level of total PON1 may be measured using an ELISA assay. Such assays are known in the art—see for example Blatter et al, Biochem J 304 (Pt 2): 549-554. An exemplary method for measuring total PON1's serum concentration comprises assaying PON1 dihydrocoumarin hydrolysis as described in Example 3.

B1: human PON1-192Q: human PON1 192Q isozyme purified from pooled blood samples (protein)
chain: AKLIALTLLGMGLALFRNHQSSYQTRLNALREVQPVELPNCNLVKGIETGSEDLEILPNGLAFISSGLKYPGIKSFNPNSPGKILLMDLNEEDPTVLELGITGSKFDVSSFNPHGISTFTDEDNAMYLLVVNHPDAKSTVELFKFQEEEKSLLHLKTIRHKLLPNLNDIVAVGPEHFYGTNDHYFLDPYLQSWEMYLGLAWSYVVYYSPSEVRVVAEGFDFANGINISPDGKYVYIAELLAHKIHVYEKHANWTLTPLKSLDFNTLVDNISVDPETGDLWVGCHPNGMKIFFYDSENPPASEVLRIQNILTEEPKVTQVYAENGTVLQGSTVASVYKGKLLIGTVFHKALYCEL
A2(%) (slow phase, HDL-bound fraction) (apoA-I rHDL): 72% | k1^inactiv (first, fast phase) (apoA-I rHDL): 0.6 h⁻¹ | k2^inactiv (second, slow phase) (apoA-I rHDL): 0.01 h⁻¹ | ratio of Vmax of PON1-192Q and -192R isozymes toward dihydrocoumarin [1]: 1.125
